The target in experiment [1] is T1, activine type IIB receptor (ActRIIB) extracellular domain.
T1 sequence (Q13705 19-137, species assumed, looked up): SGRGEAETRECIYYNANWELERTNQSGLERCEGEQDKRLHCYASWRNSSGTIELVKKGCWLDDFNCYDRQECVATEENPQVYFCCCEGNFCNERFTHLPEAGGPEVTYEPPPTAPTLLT
Briefly: SPR, BIAcore 2000; analyte Ala-BMP-2, ligand ActRIIBecd; freeze-dried preparation preserved at 5 ± 3° C. for 3 months. In general terms: SPR reads the build-up and loss of mass on a sensor chip optically.

Experiment [2] shares this target. Description: SPR, BIAcore 2000; analyte Ala-BMP-2, ligand ActRIIBecd; freeze-dried preparation preserved at 40 ± 2° C., relative humidity 75 ± 5%, for 3 months.
Experiment [3] shares this target. Briefly: SPR, BIAcore 2000; analyte Ala-BMP-2, ligand ActRIIBecd; redissolved freeze-dried preparation at start of test.
For experiment [4] the target is unchanged. Description: SPR, BIAcore 2000; analyte Ala-BMP-2, ligand ActRIIBecd; freeze-dried preparation preserved at 25 ± 2° C., relative humidity 60 ± 5%, for 3 months.

B1: active type human bone morphogenetic protein-2 homodimer added with an alanine residue to the N-terminus (ligand)
chain: AQAKHKQRKRLKSSCKRHPLYVDFSDVGWNDWIVAPPGYHAFYCHGECPFPLADHLNSTNHAIVQTLVNSVNSKIPKACCVPTELSAISMLYLDENEKVVLKNYQDMVVEGCGCR
For the molecule B1, the Biacore assay, relative value to provisional reference substance of Ala-BMP-2 as 100% in experiment [1] was determined as 100%; in experiment [2] it was 97.7%; in experiment [3] it was 98.2%; in experiment [4], 98.9%.

Source of the values: patent US20140148387A1.
